Measurements reported in patent publication US20250235545A1, “POLYPEPTIDE CONJUGATE AND USE THEREOF” (SHANGHAI CHIXI BIOMEDICAL TECHNOLOGY CO., LTD, priority 2024, published 2025).
≈ marks a conversion by molar mass, not a printed value. Like-named read-outs stand apart in the source and are kept apart here. Where a SMILES comes first, the peptide text is derived from it. The star is where a group is joined. NEt(2-(20S-CPT-7-yl)ethyl) = CCN(CCc1c2c(nc3ccccc13)-c1cc3c(c(=O)n1C2)COC(=O)[C@]3(O)CC)*; Belotecan = CC[C@@]1(O)C(=O)OCc2c1cc1n(c2=O)Cc2c-1nc1ccccc1c2CCN(C(C)C)*; X8 = CC[C@@]1(O)C(=O)OCc2c1cc1n(c2=O)Cc2c-1nc1ccccc1c2CCN(C1CCCC1)*; Propanoyl(3-maleimido) = O=C1C=CC(=O)N1CCC(=O)*; PEG6 = NCCOCCOCCOCCOCCOCCOCCC(=O)O

Experiments:
[1] = MTD determination in mice (Examples 27, 36, 44); assay type: in vivo; conditions: female, mouse, in vivo; mice, monitored for 14 d; Table 4
Excerpt: Test animals: 6-8 weeks old mice, all female; mice were grouped randomly, with six mice in each group, administered with drugs at different concentration gradients separately and monitored for 14 d. A mouse was euthanized at a loss of 20% of its initial weight and deemed to have died of poisoning.

[2] = Tumor homogenate activation efficiency, ovarian cancer tissue (Examples 28, 37); assay type: in vitro ADME; conditions: pH 5.0, 37° C., 2 h; Table 5
Method: (§1) Buffer preparation: 50 mM PH buffer (MES), 250 mM NaCl, pH adjusted to 5.0 with 0.5 M of sodium hydroxide.
(§2) The polypeptide conjugate was prepared into a 1 mg/ml solution with pH 5.0 buffer, 100 μg of tumor tissue homogenate was added, (the tumor tissue homogenate was the homogenate of tumor tissues prepared with a Jingxin F6/10 handheld homogenizer), and the solution was placed at 37° C. for 2 h. The tumor tissue homogenate could effectively activate the polypeptide conjugate and release Belotecan, and the activation efficiencies of the drugs in tumor tissues were compared by high-performance liquid chromatography (HPLC) allowing determination of a decrease in the compounds and an increase in Belotecan:
(§3) Release percentage=peak area of Belotecan/total peak area of Belotecan and all other Belotecan-containing compounds
as §2, with “HPLC” for “high-performance liquid chromatography (HPLC)”, “Belotecan: […]” for “Belotecan:”

[3] = Tumor homogenate activation efficiency, small cell lung cancer tissue (Example 28); assay type: in vitro ADME; conditions: pH 5.0, 37° C., 2 h; Table 5
Method: as §1, §2, §3

[4] = system: SKBR3 (breast cancer tissue); assay: cells; assay type: cell-based; conditions: CCK8, 48 h; Table 1
In short: (§4)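 Cells in RPMI1640 or high-glucose DMEM with 10% FBS, P/S and 1 mM sodium pyruvate were seeded at 5,000 cells/well into graded drug concentrations, with 0.1% DMSO controls, in triplicate. After 48 h at 37° C/5% CO2, CCK8 was added for about 2 h and absorbance read at 450 nm; survival and IC50 were calculated.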

SJSA-1 (sarcoma tissue) = assay: cells; assay type: cell-based; conditions: CCK8, 48 h; Table 1
In short: as §4

A2780 (ovarian cancer) = assay: cells; assay type: cell-based; conditions: CCK8, 48 h; Table 1
In short: as §4

[5] = system: A549 (non-small cell lung cancer); assay: cells; assay type: cell-based; conditions: CCK8, 48 h; Table 1
In short: as §4

[6] = Tumor homogenate activation efficiency, breast cancer tissue (Examples 28, 37); assay type: in vitro ADME; conditions: pH 5.0, 37° C., 2 h; Table 5
Method: as §1, §2, §3
as §2, with “HPLC” for “high-performance liquid chromatography (HPLC)”, “Belotecan: […]” for “Belotecan:”

[7] = Tumor homogenate activation efficiency, sarcoma tissue (Examples 28, 37); assay type: in vitro ADME; conditions: pH 5.0, 37° C., 2 h; Table 5
Method: as §1, §2, §3
as §2, with “HPLC” for “high-performance liquid chromatography (HPLC)”, “Belotecan: […]” for “Belotecan:”

[8] = system: colo320 colorectal cancer tumor model
In short: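 Female BALB/c nude mice, 6–8 weeks old, received 7.5×10^6 colo320 cells subcutaneously in the right chest. Once tumors reached at least 120 mm^3 they were randomized three per group. Treatment with test agents or saline control was given once weekly for four weeks.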

[9] = Homogenate activation efficiency, heart tissue (Examples 28, 37); assay type: in vitro ADME; conditions: pH 5.0, 37° C., 2 h; Table 5
[10] = system: sarcoma SJSA-1 tumor model; conditions: Table 2
In short: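 SJSA-1 cells (2×10^7, DMEM/10% FBS, under 15 passages) implanted subcutaneously in right chest of female BALB/c nude mice, 6-8 weeks old. At ≥100 mm^3, randomized three per group; dosing once weekly for three weeks, saline as control, day 1 = first treatment.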

[11] = Tumor homogenate activation efficiency, non-small cell lung cancer tissue (Examples 28, 37); assay type: in vitro ADME; conditions: pH 5.0, 37° C., 2 h; Table 5
Method: as §1, §2, §3
as §2, with “HPLC” for “high-performance liquid chromatography (HPLC)”, “Belotecan: […]” for “Belotecan:”

[12] = 15 mg/kg once a week for four weeks, Table 3
[13] = 45 mg/kg once a week for four weeks, Table 3
[14] = Table 14 (Example 43), dose 45 mg/kg, once a week for four weeks, BALB/c mice
[15] = 15 mg/kg once a week for three weeks
[16] = 45 mg/kg once a week for three weeks
[17] = Table 13 (Example 42), dose 45 mg/kg, once a week for four weeks, BALB/c mice

Compound | MTD at 14 d [1] [mg/kg] | Percentage of release efficiency (%) Ovarian cancer tissue (A2780) [2] [%] | Percentage of release efficiency (%) Small cell lung cancer tissue (NCI-H841) [3] [%] | IC50 SKBR3 (breast cancer tissue) [4] [µg/mL] | IC50 SJSA-1 (sarcoma tissue) (SJSA-1 (sarcoma tissue)) [µg/mL] | IC50 A2780 (ovarian cancer) (A2780 (ovarian cancer)) [µg/mL] | IC50 A549 (non-small cell lung cancer) [5] [µg/mL] | Percentage of release efficiency (%) Breast cancer tissue (SKBR3) [6] [%] | Percentage of release efficiency (%) Sarcoma tissue (SJSA1) [7] [%] | Mouse weight (%) [8, 12] | colo320 (colorectal cancer cell) growth rate (%) [8, 12] [%] | colo320 (colorectal cancer cell) mean tumor volume (mm^3) [8, 12] [mm^3] | Mouse weight (%) [8, 13] | colo320 (colorectal cancer cell) growth rate (%) [8, 13] [%] | colo320 (colorectal cancer cell) mean tumor volume (mm^3) [8, 13] [mm^3] | Mouse weight (%) [8, 14] | colo320 (colorectal cancer cell) growth rate (%) [8, 14] [%] | Percentage of release efficiency (%) Heart tissue [9] [%] | Mouse weight (%) [10, 15] | Percentage of release efficiency (%) Non-small cell lung cancer tissue (A549) [11] [%] | other results
CCN(CCc1c2c(nc3ccccc13)-c1cc3c(c(=O)n1C2)COC(=O)[C@]3(O)CC)C(=O)CNC(=O)[C@H](CCCCN)NC(=O)[C@H](C)NC(=O)[C@H](C)NC(=O)CCOCCOCCOCCOCCOCCOCCNC(=O)CCN1C(=O)C=CC1=O [MI-6PEG-AAKG-D2] ({Propanoyl(3-maleimido)-PEG6}-AAKG-{NEt(2-(20S-CPT-7-yl)ethyl)}) | 350 | 85.8 | 68 | 2.62 (≈ 2.12 µM) | 0.49 (≈ 0.397 µM) | 0.80 (≈ 0.649 µM) | 1.32 (≈ 1.07 µM) | 69.5 | 76.6 | +27% | 943.33 | 1044.8 | +24% | 470.58 | 521.2 | +24% | 470.58 | 1.5 | +27% | 69.8 | colo320 (colorectal cancer cell) mean tumor volume (mm^3) [8, 14]: 521.2 mm^3; SJSA-1 (sarcoma tissue) mean tumor volume (mm^3) [10, 15]: 1215.6 mm^3; SJSA-1 (sarcoma) Growth rate (%) [10, 15]: 980.32%; Mouse weight (%) [10, 16]: +31%; SJSA-1 (sarcoma tissue) mean tumor volume (mm^3) [10, 16]: 945.6 mm^3; SJSA-1 (sarcoma) Growth rate (%) [10, 16]: 791.30%
CC[C@@]1(O)C(=O)OCc2c1cc1n(c2=O)Cc2c-1nc1ccccc1c2CCN(C(=O)CNC(=O)[C@H](CC(N)=O)NC(=O)[C@H](C)NC(=O)[C@H](C)NC(=O)CCOCCOCCOCCOCCOCCOCCNC(=O)CCN1C(=O)C=CC1=O)C1CCCC1 [MI-6PEG-AANG-D8] ({Propanoyl(3-maleimido)-PEG6}-AANG-X8) | 400 | 70.1 | 80.8 | 2.55 (≈ 2.02 µM) | 0.87 (≈ 0.691 µM) | 1.21 (≈ 0.961 µM) | 2.51 (≈ 1.99 µM) | 70.9 | 71.1 | – | – | – | +21% | – | – | – | – | 3 | +35% | 85.1 | –
CC[C@@]1(O)C(=O)OCc2c1cc1n(c2=O)Cc2c-1nc1ccccc1c2CCN(C(=O)CNC(=O)[C@H](Cc1ccccc1)NC(=O)CNC(=O)CNC(=O)CCOCCOCCOCCOCCOCCOCCNC(=O)CCN1C(=O)C=CC1=O)C(C)C [MI-6PEG-GGFG-Belotecan] ({Propanoyl(3-maleimido)-PEG6}-GGFG-Belotecan) | 180 | 81.5 | 77.3 | 6.15 (≈ 4.97 µM) | 1.50 (≈ 1.21 µM) | 2.60 (≈ 2.1 µM) | 3.61 (≈ 2.92 µM) | 67.7 | 83.4 | +27% | 1057.73 | 1171.5 | +34% | 525.03 | 581.5 | +34% | 525.03 | 1.9 | +29% | 72.7 | Mouse weight (%) [8, 17]: +34%; colo320 (colorectal cancer cell) growth rate (%) [8, 17]: 525.03%; colo320 (colorectal cancer cell) mean tumor volume (mm^3) [8, 17]: 581.5 mm^3; colo320 (colorectal cancer cell) mean tumor volume (mm^3) [8, 14]: 581.5 mm^3; SJSA-1 (sarcoma tissue) mean tumor volume (mm^3) [10, 15]: 1453.1 mm^3; SJSA-1 (sarcoma) Growth rate (%) [10, 15]: 1257.35%; Mouse weight (%) [10, 16]: +31%; SJSA-1 (sarcoma tissue) mean tumor volume (mm^3) [10, 16]: 979.5 mm^3; SJSA-1 (sarcoma) Growth rate (%) [10, 16]: 844.40%
CC[C@@]1(O)C(=O)OCc2c1cc1n(c2=O)Cc2c-1nc1ccccc1c2CCN(C(=O)CNC(=O)[C@H](Cc1ccccc1)NC(=O)CNC(=O)CNC(=O)CCOCCOCCOCCOCCOCCOCCNC(=O)CCN1C(=O)C=CC1=O)C1CCCC1 [MI-6PEG-GGFG-D8] ({Propanoyl(3-maleimido)-PEG6}-GGFG-X8) | 250 | 76 | 66.7 | 11.26 (≈ 8.91 µM) | 2.35 (≈ 1.86 µM) | 3.77 (≈ 2.98 µM) | 4.93 (≈ 3.9 µM) | 81.2 | 72.7 | – | – | – | +17% | – | – | – | – | 3.1 | +19% | 77.5 | –
